Data published in patent US20080220446A1, “Method for Detecting and/or Removing Protein and/or Peptide Comprising a Cross-Beta Structure From an Aqueous Solution Comprising a Protein” (priority 2005, published 2008).
pKd: −log10 of the molar value.

What was measured:
tPA [1] = biological target: T1, tPA (Homo sapiens, UniProt P00750); assay: tPA/plasminogen activation assay; format: biochemical; conditions: % of standardized positive control; 1:10 diluted samples
Method: β2-GPI was reduced and alkylated as follows. Sixhundredforty μl of β2-GPI stock was mixed with 640 μl of 8 M Urea (cooled solution) in 0.1 M Tris pH-8.2. The solution was degassed with N2 gas for approximately 6 minutes. From a 1 M DTT stock 12.8 μl was added to the solution, mixed and incubated for 3 hours at room temperature. A 1 M Iodoacetamide (Sigma; I-6125) was prepared, of which 25.6 μl was added to the β2-GPI reaction mixture. The solution was subsequently dialysed against PBS. […] Signals obtained with alkyl-β2gpi are compared with those obtained with native β2gpi starting material and with positive control acid/heat denatured amyloid-like misfolded γ-globulins.
Exiqon Peptide Immobilizer plates were blocked for 1 hour with PBS, 1% Tween20 and rinsed twice with distilled water. The conversion of the chromogenic substrate S-2251 (Chromogenix, Italy) by plasmin was kinetically measured at 37° C. on a Spectramax340 microplate reader at a wavelength of 405 nm. […] Denatured γ-globulins (100 μg/ml) with amyloid-like structure was used as reference and positive control. Lyophilized γ-globulins (Sigma, Mo., USA) were dissolved in a 1(:)1 volume ratio of 1,1,1,3,3,3-hexafluoro-2-propanol and trifluoro-acetic acid and subsequently dried under air. Dried γ-globulins was dissolved in H2O to a final concentration of 1 mg/ml and kept at room temperature for at least three days and subsequently stored at −20° C.
(§1) Protein therapeutics were obtained from the local hospital pharmacy and analyzed within the expiry limits as stated by the manufacturers.

tPA [2] = biological target: T1, tPA; assay: tPA binding assay with immobilized biopharmaceuticals in an ELISA; conditions: coated 1:10, one-site binding model
Method: Plates were washed twice with Tris buffered saline pH 7.2 containing 0.1% Tween20 (TBST) and blocked with PBS containing 1% Tween20 for 1 hour at room temperature. […] Plates were washed five times with TBST and incubated with peroxidase labeled anti-mouse immunoglobulins (RAMPO; DAKOCytomation, Glostrup, Denmark) diluted 1:3000 in PBST for 30 minutes at room temperature. Plates were washed five times with PBS 0.1% Tween20, and stained with 100 μL/well of tetramethyl-benzidine (TMB) substrate (Biosource Europe, Nivelles, Belgium). The reaction was terminated with 50 μL/well of 2 M H2SO4 and substrate conversion was read at 450 nm on a Spectramax340 microplate reader. Curves were fitted with a one-site binding model (GraphPad Prism version 4.02 for Windows, Graphpad Software, Calif., USA) from which Kd and Bmax were determined.
as §1

tPA [3] = biological target: T1, tPA; assay: Plasminogen-activation assay (tPA activation, S-2251); format: biochemical
Method: Plasmin (Pls) activity was assayed as described^16. Peptides and proteins that were tested for their stimulatory ability were regularly used at 100 μg ml^−1. […] Chromogenic substrate S-2251 (Chromogenix, Instrumentation Laboratory SpA, Milano, Italy) was used to measure Pls activity. Conversion of zymogen factor XII (#233490, Calbiochem, EMD Biosciences, Inc., San Diego, Calif.) to proteolytically active factor XII (factor XIIa) was assayed by measurement of the conversion of chromogenic substrate Chromozym-PK (Roche Diagnostics, Almere, The Netherlands) by kallikrein. Chromozym-PK was used at a concentration of 0.3 mM. Factor XII, human plasma prekallikrein (#529583, Calbiochem) and human plasma cofactor high-molecular weight kininogen (#422686, Calbiochem) were used at concentrations of 1 μg ml^−1. […] Assays were performed using microtiter plates (Costar, Cambridge, Mass., USA). Peptides and proteins were tested for their ability to activate factor XII. 150 μg ml^−1 kaolin, an established activator of factor XII was used as positive control and solvent (H2O) as negative control. The conversion of Chromozym-PK was recorded kinetically at 37° C. for at least 60 minutes. Assays were done in duplicate.
(§2) Formulated protein therapeutics were obtained from the local hospital pharmacy and were used as supplied by the manufacturers. […] Lyophilized therapeutics were dissolved according to the manufacturers recommendations. GH, zinc-insulin, Cealb and gelatin were stored at −20, 4, room temperature, 37 and 65° C. Other protein therapeutics were only kept at 4° C., and assayed for the presence of cross-β structure at shown time points. Enhancement in fluorescence of ThT and Congo red was measured with all formulated protein therapeutics. For this purpose, proteins were diluted to the indicated concentrations. […] Zinc-insulin was diluted tenfold in the activation assay, GH was diluted to a final concentration of 500 μg ml^−1. Activation of factor XII and prekallikrein by the therapeutics was tested in the chromogenic factor XII assay (see above). […] After coating, plates were blocked with Blocking Reagent (Roche Diagnostics, Almere, The Netherlands).
To prepare structurally altered ovalbumin (OVA) with amyloid cross-β structures, purified OVA (Sigma, A-7641, lot 071k7094) was heated to 85° C. One mg ml^−1 OVA in 67 mM NaPi buffer pH 7.0, 100 mM NaCl, was heated for two cycles in PCR cups in a PTC-200 thermal cycler (MJ Research, Inc., Waltham, Mass., USA). In each cycle, OVA was heated from 30 to 85° C. at a rate of 5° C./min. Native OVA (nOVA) and heat-denatured OVA (dOVA) were tested in the ThT fluorescence assay and in the Plg-activation assay. In the fluorescence assay and in the Plg-activation assay, 25 and 100 μg ml^−1 nOVA and dOVA were tested, respectively. TEM images of nOVA and dOVA were taken to check for the presence of large aggregates.
MSA (#126674, Calbiochem) was dissolved in 8 M urea, 100 mM Tris-HCl pH 8.2, at 10 mg ml^−1 final concentration. Dithiothreitol (DTT) was added to a final concentration of 10 mM. Air was replaced by N2 and the solution was incubated for 2 h at room temperature. Then, the solution was transferred to ice and iodoacetamide was added from a 1 M stock to a final concentration of 20 mM. […] Alkyl-MSA was dialyzed against H2O before use. […] In the ThT-fluorescence assay 25 μg ml^−1 nMSA and alkyl-MSA were tested, and in the Plg-activation assay 100 μg ml^−1 was tested. The presence of aggregates or fibrils was analyzed using TEM.
Lyophilized sterile glucagon was dissolved at 1 mg ml^−1 in H2O with 10 mM HCl. The solution was subsequently kept at 37° C. for 24 h, at 4° C. for 14 days and again at 37° C. for 9 days. […] TEM analysis was performed to assess the presence of large multimeric structures.

tPA [4] = biological target: T1, tPA; assay: tPA ELISA with coated protein therapeutics; format: binding; conditions: for binding of tPA: ELISA, stored at the recommended temperature of 4° C.
Method: as §2

T1 sequence (P00750 36-562): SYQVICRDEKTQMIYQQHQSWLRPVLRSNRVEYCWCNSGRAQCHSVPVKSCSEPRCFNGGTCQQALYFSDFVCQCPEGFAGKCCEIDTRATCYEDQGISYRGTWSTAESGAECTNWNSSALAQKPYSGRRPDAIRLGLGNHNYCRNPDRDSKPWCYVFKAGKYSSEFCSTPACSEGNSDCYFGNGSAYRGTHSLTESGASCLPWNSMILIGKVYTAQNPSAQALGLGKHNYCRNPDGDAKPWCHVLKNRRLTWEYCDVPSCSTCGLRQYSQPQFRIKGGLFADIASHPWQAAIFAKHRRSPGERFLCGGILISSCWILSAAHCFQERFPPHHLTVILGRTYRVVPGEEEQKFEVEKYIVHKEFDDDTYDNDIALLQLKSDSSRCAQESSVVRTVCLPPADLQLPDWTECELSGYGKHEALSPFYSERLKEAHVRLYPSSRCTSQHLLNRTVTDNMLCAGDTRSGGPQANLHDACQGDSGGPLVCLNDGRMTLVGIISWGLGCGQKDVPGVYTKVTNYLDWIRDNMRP

Substance | tPA activation Max. Activation (tPA [1]) [%] | tPA Binding Bmax (tPA [2]) [OD450 nm] | Pls activity (tPA activating properties) (tPA [3]; after storage at 65° C.) | binding of tPA (tPA [4]) | pKd (tPA [2]) | tPA activation (tPA [3]; protein solutions stored at 4° C.) | pKd (tPA [4]; tPA ELISA, immobilized protein, stored at 4° C., read-out: KD of tPA binding)
Abciximab: abciximab, an inhibitor of blood platelet aggregation (ReoPro, Centocor) | 0 | 0.5329 | induced Pls activity | binding of tPA was established | – | – | –
Somatropin: human growth hormone (Genotropin, Pharmacia) | 113.95 | 0.9369 | – | binding of tPA was established | 8.04 | induced tPA activation | 7.14
